According to paper PMC10786891, “Massively parallel profiling of RNA-targeting CRISPR-Cas13d”:

T1: EsCas13d, nuclease-dead (Eubacterium siraeum, UniProt B0MS50, R295A;H300A;R849A;H854A)
T1 sequence: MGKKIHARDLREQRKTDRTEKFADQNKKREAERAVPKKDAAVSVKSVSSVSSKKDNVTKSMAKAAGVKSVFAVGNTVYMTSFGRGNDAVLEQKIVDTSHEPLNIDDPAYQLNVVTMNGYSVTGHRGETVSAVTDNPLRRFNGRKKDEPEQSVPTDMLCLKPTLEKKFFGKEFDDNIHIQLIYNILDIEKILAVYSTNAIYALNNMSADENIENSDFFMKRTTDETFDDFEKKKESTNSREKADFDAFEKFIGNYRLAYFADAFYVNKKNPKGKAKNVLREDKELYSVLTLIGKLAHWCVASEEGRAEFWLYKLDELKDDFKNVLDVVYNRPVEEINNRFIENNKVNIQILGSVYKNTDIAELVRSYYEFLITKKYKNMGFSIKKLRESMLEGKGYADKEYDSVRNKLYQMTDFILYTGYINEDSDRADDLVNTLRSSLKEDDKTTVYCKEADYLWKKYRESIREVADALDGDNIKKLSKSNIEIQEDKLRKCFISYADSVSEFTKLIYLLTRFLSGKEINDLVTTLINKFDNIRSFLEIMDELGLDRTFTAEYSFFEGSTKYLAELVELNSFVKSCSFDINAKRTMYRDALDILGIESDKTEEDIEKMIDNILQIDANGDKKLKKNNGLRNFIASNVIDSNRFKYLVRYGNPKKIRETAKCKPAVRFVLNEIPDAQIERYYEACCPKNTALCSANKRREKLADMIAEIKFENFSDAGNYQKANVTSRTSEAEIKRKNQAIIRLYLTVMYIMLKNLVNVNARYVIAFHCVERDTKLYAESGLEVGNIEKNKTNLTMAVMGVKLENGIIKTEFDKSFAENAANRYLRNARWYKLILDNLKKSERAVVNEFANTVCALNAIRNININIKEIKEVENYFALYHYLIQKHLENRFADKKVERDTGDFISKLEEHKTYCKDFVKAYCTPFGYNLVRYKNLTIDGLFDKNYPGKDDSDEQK

B1: target 1 C6A,U11G (mixed)
RNA 1: CACCCGUGCAAAAAUGCAGGGGUCUAAAACUGAGCGGAUAACCUCUCUAUGG
RNA 2: GGGAAUGGAUCCACAUCUACGAAUUCGUACCAUAGAGAGGGUAUCAGCUCACCGAGAUCGGAAGAGCACACGU
B2: target 1 A1U,U8A (mixed)
RNA 1: CACCCGUGCAAAAAUGCAGGGGUCUAAAACUGAGCGGAUAACCUCUCUAUGG
RNA 2: GGGAAUGGAUCCACAUCUACGAAUUCGUACCAUAGAGAGGUUAACCGCUCUCCGAGAUCGGAAGAGCACACGU
B3: target 1 C6G,C22A (mixed)
RNA 1: CACCCGUGCAAAAAUGCAGGGGUCUAAAACUGAGCGGAUAACCUCUCUAUGG
RNA 2: GGGAAUGGAUCCACAUCUACGAAUUCGUAACAUAGAGAGGUUAUCGGCUCACCGAGAUCGGAAGAGCACACGU
B4: target 3 C1G,C6U (mixed)
RNA 1: CACCCGUGCAAAAUUGCAGGGGUCUAAAACGACCUGAAUAUUUCAGAUCAAA
RNA 2: GGGAAUGGAUCCACAUCUACGAAUUCGUUUUUGAUCUGAAAUAUUUAGGUGUGCAGAUCGGAAGAGCACACGU
B5: target 3 A5C,U22A (mixed)
RNA 1: CACCCGUGCAAAAUUGCAGGGGUCUAAAACGACCUGAAUAUUUCAGAUCAAA
RNA 2: GGGAAUGGAUCCACAUCUACGAAUUCGUUAUUGAUCUGAAAUAUUCCGGUCUGCAGAUCGGAAGAGCACACGU
B6: target 3 insA 3' of 14,insG 3' of 5 (mixed)
RNA 1: CACCCGUGCAAAAUUGCAGGGGUCUAAAACGACCUGAAUAUUUCAGAUCAAA
RNA 2: GGGAAUGGAUCCACAUCUACGAAUUCGUUUUUGAUCUGAAAAUAUUCAGGGUCUGCAGAUCGGAAGAGCACACGU
B7: target 3 insU 3' of 22,insC 3' of 9 (mixed)
RNA 1: CACCCGUGCAAAAUUGCAGGGGUCUAAAACGACCUGAAUAUUUCAGAUCAAA
RNA 2: GGGAAUGGAUCCACAUCUACGAAUUCGUUUUUUGAUCUGAAAUACUUCAGGUCUGCAGAUCGGAAGAGCACACGU
B8: target 3 insG 3' of 7,insA 3' of 7 (mixed)
RNA 1: CACCCGUGCAAAAUUGCAGGGGUCUAAAACGACCUGAAUAUUUCAGAUCAAA
RNA 2: GGGAAUGGAUCCACAUCUACGAAUUCGUUUUUGAUCUGAAAUAUUGACAGGUCUGCAGAUCGGAAGAGCACACGU
B9: target 3 insG 3' of 6,insA 3' of 4 (mixed)
RNA 1: CACCCGUGCAAAAUUGCAGGGGUCUAAAACGACCUGAAUAUUUCAGAUCAAA
RNA 2: GGGAAUGGAUCCACAUCUACGAAUUCGUUUUUGAUCUGAAAUAUUCGAGAGUCUGCAGAUCGGAAGAGCACACGU
B10: target 3 insU 3' of 4,insC 3' of 4 (mixed)
RNA 1: CACCCGUGCAAAAUUGCAGGGGUCUAAAACGACCUGAAUAUUUCAGAUCAAA
RNA 2: GGGAAUGGAUCCACAUCUACGAAUUCGUUUUUGAUCUGAAAUAUUCAGUCGUCUGCAGAUCGGAAGAGCACACGU
B11: target 3 insC 3' of 9,insG 3' of 8 (mixed)
RNA 1: CACCCGUGCAAAAUUGCAGGGGUCUAAAACGACCUGAAUAUUUCAGAUCAAA
RNA 2: GGGAAUGGAUCCACAUCUACGAAUUCGUUUUUGAUCUGAAAUACUGUCAGGUCUGCAGAUCGGAAGAGCACACGU
B12: target 3 G3A,A5G (mixed)
RNA 1: CACCCGUGCAAAAUUGCAGGGGUCUAAAACGACCUGAAUAUUUCAGAUCAAA
RNA 2: GGGAAUGGAUCCACAUCUACGAAUUCGUUUUUGAUCUGAAAUAUUCGGAUCUGCAGAUCGGAAGAGCACACGU
B13: target 3 insU 3' of 4,insU 3' of 1 (mixed)
RNA 1: CACCCGUGCAAAAUUGCAGGGGUCUAAAACGACCUGAAUAUUUCAGAUCAAA
RNA 2: GGGAAUGGAUCCACAUCUACGAAUUCGUUUUUGAUCUGAAAUAUUCAGUGUCUUGCAGAUCGGAAGAGCACACGU
B14: target 3 insG 3' of 8,insA 3' of 7 (mixed)
RNA 1: CACCCGUGCAAAAUUGCAGGGGUCUAAAACGACCUGAAUAUUUCAGAUCAAA
RNA 2: GGGAAUGGAUCCACAUCUACGAAUUCGUUUUUGAUCUGAAAUAUGUACAGGUCUGCAGAUCGGAAGAGCACACGU
B15: target 3 insA 3' of 7 (mixed)
RNA 1: CACCCGUGCAAAAUUGCAGGGGUCUAAAACGACCUGAAUAUUUCAGAUCAAA
RNA 2: GGGAAUGGAUCCACAUCUACGAAUUCGUUUUUGAUCUGAAAUAUUACAGGUCUGCAGAUCGGAAGAGCACACGU
B16: target 3 insU 3' of 4,insG 3' of 1 (mixed)
RNA 1: CACCCGUGCAAAAUUGCAGGGGUCUAAAACGACCUGAAUAUUUCAGAUCAAA
RNA 2: GGGAAUGGAUCCACAUCUACGAAUUCGUUUUUGAUCUGAAAUAUUCAGUGUCGUGCAGAUCGGAAGAGCACACGU
B17: target 3 G4C,A12C (mixed)
RNA 1: CACCCGUGCAAAAUUGCAGGGGUCUAAAACGACCUGAAUAUUUCAGAUCAAA
RNA 2: GGGAAUGGAUCCACAUCUACGAAUUCGUUUUUGAUCUGACAUAUUCACGUCUGCAGAUCGGAAGAGCACACGU
B18: target 3 insC 3' of 22,insU 3' of 3 (mixed)
RNA 1: CACCCGUGCAAAAUUGCAGGGGUCUAAAACGACCUGAAUAUUUCAGAUCAAA
RNA 2: GGGAAUGGAUCCACAUCUACGAAUUCGUUUCUUGAUCUGAAAUAUUCAGGUUCUGCAGAUCGGAAGAGCACACGU
B19: target 3 insC 3' of 8,insG 3' of 6 (mixed)
RNA 1: CACCCGUGCAAAAUUGCAGGGGUCUAAAACGACCUGAAUAUUUCAGAUCAAA
RNA 2: GGGAAUGGAUCCACAUCUACGAAUUCGUUUUUGAUCUGAAAUAUCUCGAGGUCUGCAGAUCGGAAGAGCACACGU
B20: target 3 U8C (mixed)
RNA 1: CACCCGUGCAAAAUUGCAGGGGUCUAAAACGACCUGAAUAUUUCAGAUCAAA
RNA 2: GGGAAUGGAUCCACAUCUACGAAUUCGUUUUUGAUCUGAAAUACUCAGGUCUGCAGAUCGGAAGAGCACACGU
B21: target 3 insU 3' of 16,insU 3' of 4 (mixed)
RNA 1: CACCCGUGCAAAAUUGCAGGGGUCUAAAACGACCUGAAUAUUUCAGAUCAAA
RNA 2: GGGAAUGGAUCCACAUCUACGAAUUCGUUUUUGAUCUUGAAAUAUUCAGUGUCUGCAGAUCGGAAGAGCACACGU
B22: target 3 complement block 4-9 (mixed)
RNA 1: CACCCGUGCAAAAUUGCAGGGGUCUAAAACGACCUGAAUAUUUCAGAUCAAA
RNA 2: GGGAAUGGAUCCACAUCUACGAAUUCGUUUUUGAUCUGAAAUUAAGUCGUCUGCAGAUCGGAAGAGCACACGU
B23: target 3 U2C,G14A (mixed)
RNA 1: CACCCGUGCAAAAUUGCAGGGGUCUAAAACGACCUGAAUAUUUCAGAUCAAA
RNA 2: GGGAAUGGAUCCACAUCUACGAAUUCGUUUUUGAUCUAAAAUAUUCAGGCCUGCAGAUCGGAAGAGCACACGU
B24: target 3 complement block 5-8 (mixed)
RNA 1: CACCCGUGCAAAAUUGCAGGGGUCUAAAACGACCUGAAUAUUUCAGAUCAAA
RNA 2: GGGAAUGGAUCCACAUCUACGAAUUCGUUUUUGAUCUGAAAUAAAGUGGUCUGCAGAUCGGAAGAGCACACGU
B25: target 3 insA 3' of 21 (mixed)
RNA 1: CACCCGUGCAAAAUUGCAGGGGUCUAAAACGACCUGAAUAUUUCAGAUCAAA
RNA 2: GGGAAUGGAUCCACAUCUACGAAUUCGUUUUAUGAUCUGAAAUAUUCAGGUCUGCAGAUCGGAAGAGCACACGU
B26: target 3 insA 3' of 21,insU 3' of 4 (mixed)
RNA 1: CACCCGUGCAAAAUUGCAGGGGUCUAAAACGACCUGAAUAUUUCAGAUCAAA
RNA 2: GGGAAUGGAUCCACAUCUACGAAUUCGUUUUAUGAUCUGAAAUAUUCAGUGUCUGCAGAUCGGAAGAGCACACGU
B27: target 3 insA 3' of 22,insC 3' of 5 (mixed)
RNA 1: CACCCGUGCAAAAUUGCAGGGGUCUAAAACGACCUGAAUAUUUCAGAUCAAA
RNA 2: GGGAAUGGAUCCACAUCUACGAAUUCGUUUAUUGAUCUGAAAUAUUCACGGUCUGCAGAUCGGAAGAGCACACGU
B28: target 3 insC 3' of 5,insA 3' of 4 (mixed)
RNA 1: CACCCGUGCAAAAUUGCAGGGGUCUAAAACGACCUGAAUAUUUCAGAUCAAA
RNA 2: GGGAAUGGAUCCACAUCUACGAAUUCGUUUUUGAUCUGAAAUAUUCACGAGUCUGCAGAUCGGAAGAGCACACGU

These binders were tested against T1, EsCas13d, nuclease-dead (assay: crRNA (strand 1, pre-loaded); Mg2+; 40 mM Tris-HCl pH 7.5, 150 mM NaCl, 6 mM MgCl2, 1 mM DTT, 0.1% Tween-20, 0.2 mg/ml BSA; 25 C; 10 min per concentration, then washed). Settings: tags: His6-TwinStrep-SUMO cleaved; N-terminal SNAP kept (SNAP-Surface 488); label: 3' end held by stalled T7 RNA polymerase.

Question: For B1, which Kd is on record?
Answer: 10.8 ± 0.4 nM

Question: With B2 as the binder, how does the Kd read?
Answer: 26.7 ± 1.3 nM

Question: B3 was tested. Which Kd did it give?
Answer: 14.7 ± 1 nM

Question: How did the Kd turn out when B4 was run?
Answer: 22.1 ± 2.55 nM

Question: Which Kd does the source give for B5 here?
Answer: 60.5 ± 10.5 nM

Question: How did the Kd turn out when B6 was run?
Answer: 105 ± 31 nM

Question: With B7 as the binder, how does the Kd read?
Answer: 82.5 ± 21.5 nM

Question: With B8 as the binder, how does the Kd read?
Answer: 39.5 ± 5 nM

Question: Which Kd does the source give for B9 here?
Answer: 12.3 ± 1.1 nM

Question: B10 was tested. Which Kd did it give?
Answer: 19.5 ± 2.5 nM

Question: Which Kd does the source give for B11 here?
Answer: 82.5 ± 12.5 nM

Question: With B12 as the binder, how does the Kd read?
Answer: 42.5 ± 6 nM

Question: B13 was tested. Which Kd did it give?
Answer: 37 ± 7 nM

Question: B14 was tested. Which Kd did it give?
Answer: 42 ± 6 nM

Question: B15 was tested. Which Kd did it give?
Answer: 44 ± 8.5 nM

Question: B16 was tested. Which Kd did it give?
Answer: 43 ± 11.5 nM

Question: B17 was tested. Which Kd did it give?
Answer: 95 ± 30 nM

Question: Which Kd does the source give for B18 here?
Answer: 58 ± 10 nM

Question: How did the Kd turn out when B19 was run?
Answer: 79.5 ± 20.5 nM

Question: B20 was tested. Which Kd did it give?
Answer: 30.4 ± 2.25 nM

Question: For B21, which Kd is on record?
Answer: 37 ± 7 nM

Question: Which Kd does the source give for B22 here?
Answer: 67.5 ± 18 nM

Question: For B23, which Kd is on record?
Answer: ~64.5 nM

Question: With B24 as the binder, how does the Kd read?
Answer: 60.5 ± 6 nM

Question: Which Kd does the source give for B25 here?
Answer: 33.5 ± 4.5 nM

Question: How did the Kd turn out when B26 was run?
Answer: 11.9 ± 2.1 nM

Question: How did the Kd turn out when B27 was run?
Answer: 24.9 ± 3.35 nM

Question: How did the Kd turn out when B28 was run?
Answer: 9.8 ± 0.9 nM
